In the supplement of paper PMC7877785:
± gives the uncertainty stated by the source.

Experiment: self-splicing fitness, log relative to wild type (ln ratio); higher = more splicing; Tetrahymena group I intron in knt gene, E. coli kanamycin selection, DiMSum; sequences stand for … in CUCUCU…GGAGGGAAAAGUUAUCAGGCAUGCACCUGGUAGCUAGUCUUUAAACCAAUAGAUUGCAUCGGUUUAAAAGGCAAGACCGUCAAAUUGCGGGAAAGGGGUCAACAGCCGUUCAGUACCAAGUCUCAGGGGAAACUUUGAGAUGGCCUUGCAAAGGGUAUGGUAAUAAGCUGACGGACAUGGUCCUAACCACGCAGCCAAGUCCUAAGUCAACAGAUCUUCUGUUGAUAUGGAUGCAGUUCACAGACUAAAUGUCGGUCGGGGAAGAUGUAUUCUUCUCAUAAGAUAUAGUCGGACCUCUCCUUAAUGGGAGCUAGCGGAUGAAGUGAUGCAACACUGGAGCCGCUGGGAACUAAUUUGUAUGCGAAAGUAUAUUGAUUAGUUUUGGAGUACUCGUGGUCG
Summary of the method: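 Pooled colonies went to amplicon sequencing on an Illumina HiSeq 2500 after six replicate transformations. The plates were LB agar with 100 μg/mL carbenicillin, 50 μM IPTG and 0.2% rhamnose, with or without 25 μg/mL kanamycin, incubated overnight at 37°C or 30°C. The E. coli BL21(DE3) library had all eight P1ex-region intron nucleotides randomised, the intron placed in the knt kanamycin-resistance gene on pET-22b(+). DiMSum fitness is the error-weighted combination of replicate fold changes, kanamycin against none, normalised to wild type.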

Row | Sequence | self-splicing fitness (ln) (30 °C) | self-splicing fitness (ln) (37 °C)
1 | ACUGAGCAAUAUUACGGAUG | -2.58 ± 0.12 | -1.67 ± 0.14
2 | UACAAGCAAUAUUACGGCUC | -1.46 ± 0.088 | -0.468 ± 0.11
3 | UUUCAGCAAUAUUACGGCAG | -0.779 ± 0.17 | 0.0981 ± 0.19
4 | AAAGAGCAAUAUUACGAGUC | -3.41 ± 0.38 | -2.63 ± 0.45
5 | UUCAAGCAAUAUUACGGACA | -0.496 ± 0.12 | 0.121 ± 0.11
6 | UUUCAGCAAUAUUACGAUAC | -2.17 ± 0.25 | -2.02 ± 0.26
7 | CAAUAGCAAUAUUACGGUGG | -0.89 ± 0.081 | -0.133 ± 0.1
8 | AGUAAGCAAUAUUACGUUGC | -4.14 ± 0.21 | -2.21 ± 0.17
9 | CAGCAGCAAUAUUACGACAC | -2.83 ± 0.23 | -2.45 ± 0.26
10 | GGGAAGCAAUAUUACGCAUU | -2.94 ± 0.34 | -1.53 ± 0.44
11 | GAUAAGCAAUAUUACGACAC | -0.403 ± 0.12 | 0.0901 ± 0.16
12 | AGAGAGCAAUAUUACGCUAC |  | -2.33 ± 0.45
13 | CCGCAGCAAUAUUACGGGCC | -2.9 ± 0.25 | -2.34 ± 0.29
14 | GUGCAGCAAUAUUACGUGCG | -2.56 ± 0.1 | -2.06 ± 0.14
15 | GGGCAGCAAUAUUACGUAAU | -0.917 ± 0.063 | 0.209 ± 0.085
16 | AUAGAGCAAUAUUACGCCUG | -0.827 ± 0.092 | 0.302 ± 0.15
17 | CGCUAGCAAUAUUACGGCCG | -1.19 ± 0.17 | -1.11 ± 0.14
18 | GUCAAGCAAUAUUACGACAC | -0.691 ± 0.12 | -0.114 ± 0.14
19 | GAAGAGCAAUAUUACGUAGU | -2.69 ± 0.13 | -2.88 ± 0.2

Row | Sequence | self-splicing fitness (ln) (30 °C) | self-splicing fitness (ln) (37 °C)
20 | CCGUAGCAAUAUUACGUUAU | -2.06 ± 0.12 | -2.35 ± 0.23
21 | GAGUAGCAAUAUUACGGUGC | -1.19 ± 0.15 | 0.00945 ± 0.18
22 | GUGAAGCAAUAUUACGGUAU | -1.47 ± 0.076 | -0.418 ± 0.1
23 | GGGGAGCAAUAUUACGCAGA |  | -2.07 ± 0.47
24 | CCAGAGCAAUAUUACGACGC | -4.17 ± 0.34 | -2.11 ± 0.28
25 | ACAUAGCAAUAUUACGUACA | -2.25 ± 0.16 | -1.25 ± 0.12
26 | GCAGAGCAAUAUUACGUAUA | -1.41 ± 0.22 | -2.76 ± 0.47
27 | UCGUAGCAAUAUUACGGUCA | -0.782 ± 0.16 | -0.0592 ± 0.13
28 | UCACAGCAAUAUUACGUAAU | -3.25 ± 0.21 | -2.54 ± 0.29
29 | AGAAAGCAAUAUUACGAUCG | -0.0642 ± 0.072 | -0.026 ± 0.091
30 | CAGGAGCAAUAUUACGGAUA |  | -0.862 ± 0.41
31 | AUGUAGCAAUAUUACGUUCC | -1.92 ± 0.12 | -0.942 ± 0.17
32 | GAAUAGCAAUAUUACGUGCC | -0.897 ± 0.12 | -0.104 ± 0.15
33 | UACCAGCAAUAUUACGUGAA | -1.06 ± 0.053 | -0.463 ± 0.076
34 | UAGAAGCAAUAUUACGACUC | -0.192 ± 0.12 | -0.013 ± 0.16
35 | GGGAAGCAAUAUUACGGCGU | -0.0838 ± 0.13 | -0.241 ± 0.14
36 | AUCCAGCAAUAUUACGUGCG | -1.65 ± 0.078 | -0.875 ± 0.076
37 | AUAUAGCAAUAUUACGUCAG | -3.76 ± 0.31 | -1.62 ± 0.25
38 | CUCUAGCAAUAUUACGAAAG | -2.34 ± 0.2 | -2.11 ± 0.34
